Biological target: the molecule itself
Test: mass photometry; Refeyn One MP; LARGE1 samples diluted in TBS to approximately 30 nM (2.5 ug/ml), room temperature, 60 second recordings; monomer to dimer

| Protein | stoichiometry N |
| --- | --- |
| LARGE1^ΔCC (soluble secreted ectodomain of human LARGE1 without its coiled-coil domain, residues 92-756) (domain or fragment, UniProt O95461 92-756, looked up, residues 134 to 752 are modelled in the crystal structure; Cloned into a modified pHLsec plasmid; also called LARGE1 without CC; LARGE1- CC) SHRRGNHSKTYSMEEGTGDSENLRAGIVAGNSSECGQQPVVEKCETIHVAIVCAGYNASRDVVTLVKSVLFHRRNPLHFHLIADSIAEQILATLFQTWMVPAVRVDFYNADELKSEVSWIPNKHYSGIYGLMKLVLTKTLPANLERVIVLDTDITFATDIAELWAVFHKFKGQQVLGLVENQSDWYLGNLWKNHRPWPALGRGYNTGVILLLLDKLRKMKWEQMWRLTAERELMGMLSTSLADQDIFNAVIKQNPFLVYQLPCFWNVQLSDHTRSEQCYRDVSDLKVIHWNSPKKLRVKNKHVEFFRNLYLTFLEYDGNLLRRELFGCPSEADVNSENLQKQLSELDEDDLCYEFRRERFTVHRTHLYFLHYEYEPAADSTDVTLVAQLSMDRLQMLEAICKHWEGPISLALYLSDAEAQQFLRYAQGSEVLMSRHNVGYHIVYKEGQFYPVNLLRNVAMKHISTPYMFLSDIDFLPMYGLYEYLRKSVIQLDLANTKKAMIVPAFETLRYRLSFPKSKAELLSMLDMGTLFTFRYHVWTKGHAPTNFAKWRTATTPYRVEWEADFEPYVVVRRDCPEYDRRFVGFGWNKVAHIMELDVQEYEFIVLPNAYMIHMPHAPSFDITKFRSNKQYRICLKTLKEEFQQDMSRRYGFAALKYLTAENNS | 2 |
| LARGE1^ecto (soluble secreted ectodomain of human LARGE1 with its coiled-coil domain, residues 29-756) (domain or fragment, UniProt O95461 29-756, looked up, Cloned into a modified pHLsec plasmid (BglII/NotI); also called Like-acetylglucosaminyltransferase 1; LARGE1-His WT) LFSGSFEDGKPVSLSPLESQAHSPRYTASSQRERESLEVRMREVEEENRALRRQLSLAQGRAPSHRRGNHSKTYSMEEGTGDSENLRAGIVAGNSSECGQQPVVEKCETIHVAIVCAGYNASRDVVTLVKSVLFHRRNPLHFHLIADSIAEQILATLFQTWMVPAVRVDFYNADELKSEVSWIPNKHYSGIYGLMKLVLTKTLPANLERVIVLDTDITFATDIAELWAVFHKFKGQQVLGLVENQSDWYLGNLWKNHRPWPALGRGYNTGVILLLLDKLRKMKWEQMWRLTAERELMGMLSTSLADQDIFNAVIKQNPFLVYQLPCFWNVQLSDHTRSEQCYRDVSDLKVIHWNSPKKLRVKNKHVEFFRNLYLTFLEYDGNLLRRELFGCPSEADVNSENLQKQLSELDEDDLCYEFRRERFTVHRTHLYFLHYEYEPAADSTDVTLVAQLSMDRLQMLEAICKHWEGPISLALYLSDAEAQQFLRYAQGSEVLMSRHNVGYHIVYKEGQFYPVNLLRNVAMKHISTPYMFLSDIDFLPMYGLYEYLRKSVIQLDLANTKKAMIVPAFETLRYRLSFPKSKAELLSMLDMGTLFTFRYHVWTKGHAPTNFAKWRTATTPYRVEWEADFEPYVVVRRDCPEYDRRFVGFGWNKVAHIMELDVQEYEFIVLPNAYMIHMPHAPSFDITKFRSNKQYRICLKTLKEEFQQDMSRRYGFAALKYLTAENNS | 2 |

— PMC9746966, “Structural basis for matriglycan synthesis by the LARGE1 dual glycosyltransferase” (PLOS ONE, 2022)
